In the DeepSol protein solubility set:

Experiment: soluble on expression in E. coli; label from the status in PepcDB or PDB records

| Sequence | soluble on expression in E. coli |
| --- | --- |
| MSQYERFDSVLLSMAQQLSGGVPEMLDVLFEFLSRKTDFYSGAGVDQARTLLLEKFDKHGGKAMKEAEEAKKRKEEQERKLAERRAAQKAKEEEEFRNAKVVEVTDEEAAAFEKEQAKNSVENLEKFVDNEGETSKDAEVEDEDSKLMKPNSGNGADLAKYQWTQTLQELEVKIPIAAGFAIKSRDVVVKIEKTSVSVGLKNQAPIVDGKLPHAIKVENCNWVIENGKAIVLTLEKINDMEWWNRFLDSDPPINTKEVKPENSKLSDLDGETRAMVEKMMYDQRQKEMGLPTSDEKKKHDMLQQFMKQHPEMDFSNAKIG | soluble |
| MSQYVVCALYKFVELNNYQELREPLLALMEKHHIRGTLLLAGEGINGTVASDRAGIDTLLEWLNTEPRLTGTVYKESYSETQPFNRTKVKLKKEIVTLGVEGIDPRHVVGTYVKPQDWNDLIADPEVFVVDTRNDYEIEIGTFKGAVNPNTETFREFPDYVKENMDPAKHKKVAMFCTGGIRCEKSTAYMKEQGFEEVYHLEGGILKYLEEVPQEESMWEGDCYVFDGRVAVNHQLEKADYDLCNACRLPITDEDKQSELFEQGVSCPKCHGKHSEEQVERFREREKQVSLANQRGEQHVGGESAKQRAQRREAKLAKKAAQRKQALEHHHHHH | soluble |
| MSRFDSGLPSVRQVQLLIKDQTPVEIKLLTGDSLFGTIRWQDTDGLGLVDDSERSTIVRLAAIAYITPRR | soluble |
| MSRPLGFIGYEFGDDEMFVQQMIEKKSNAEQAKMLEQQKKMLECTETMPEESEPVPMKCLDFEEAFQSESVSKGYESPYKNISFLKEDAVTVNTMSHCPADDIAKLIRNIQNSVYTLGIEEARQCRRGKLLNVLKPTGSASPRYLQPTPPKNVAEETTGSQ | not soluble |
| MSRRKAGSAPRRVEPAPAANPDDEMEMQDLVIELKPEPDAQPQQAPRLGPFSPKEVSSAGRFGGEPHHSPGPMPAGAALLALGPRNPWTLWTPLTPNYPDRQPWTDKHPDLLTCGRCLQTFPLEAITAFMDHKKLGCQLFRGPSRGQGSEREELKALSCLRCGKQFTVAWKLLRHAQWDHGLSIYQTESEAPEAPLLGLAEVAAAVSAVVGPAAEAKSPRASGSGLTRRSPTCPVCKKTLSSFSNLKVHMRSHTGERPYACDQCPYACAQSSKLNRHKKTHRQVPPQSPLMADTSQEQASAAPPEPAVHAAAPTSTLPCSGGEGAGAAATAGVQEPGAPGSGAQAGPGGDTWGAITTEQRTDPANSQKASPKKMPKSGGKSRGPGGSCEFCGKHFTNSSNLTVHRRSHTGERPYTCEFCNYACAQSSKLNRHRRMHGMTPGSTRFECPHCHVPFGLRATLDKHLRQKHPEAAGEA | not soluble |
| MSRRSSSSDSAVYVNFLERERRADVEKAARLYETRRDRVEPSYVFPAPSGEKRVGPNSNTGQKGVVGSYPVSIDYLTVVFSYARLAEAGYFDEPRFLLYLLFGLSVDDVIVGSHTSVRWHFYNSSASIIDSNGDLVGKIGWDGNADSYCISLTGSACRYIHDWSKVKRSLASLDARITRCDVAYDDYDGILGTVRHHEALAREHLAPAGGCLLFSSGGTPPRTRFLDDHGGGSGCTLYVGQRGHKQLCIYEKGKQLGVAESPWVRYEVRLYAKHAVIPFDLLEEPMRYLRGSYDYLCQLFSSVVVSPVSRIRTVVKHVEATGEALVRWLRRQVGPALGVLRQALGCGFSDFIVDRVEREGLPSRFRRICRGGDLLAYLRETLIDCSVGVCV | not soluble |
| MSRSRKPDWLKMRPPSGERFTDIKQTLRDRNLNTVCEEANCPNLGECWSGRDGPGTATFMLMGDRCSRGCNFCDVETGGMDPLDPDEPQQVADAVAEIGLDYVVLTSVDRDDLPDQGASHFAETIRAIKERDPSILVECLIPDFQGEPDLVRKIIDADPDVIAHNIETVDRLQWPVRDRRAGYEQSLSVLRQVNRESDCYSKTSLMLGVGEYAHEVYQTLSDLRQAGVDVVTFGQYLQPSRSHLEVSEYVHPDAFDTWQQVAEAEFDFLYCASGPMVRSSYRAGELFVESVLREGRSADEARAEVRAND | not soluble |
| MSSAKHFTEVLIGGKVYTLSGFEGEEYLQKVSSYLNHKITECANSEGYRKQSADTRNVLLALNIADDYFKAKKQGDSLESDIELKDKEMYDLKHELISVQIKLENAEKELAKMKEENNDLQMQIVKLETEMKNRRK | not soluble |
| MSSANIPATQSALIFEKYGGPLEVRQVSVPQPQENELLVKIEYSGICHSDLHTWEGDFEYASICPLIGGHEGAGTVVTIGSKVKGWNIGDRAGIKLINANCLNCEYCKTGHEPLCDHIQNYGIDRHGTFQEYLTIRDIDAIKVSNDTNLAAAAPVLCGGVTAYKSLKATNVKPGQIVVLTGAGGGLGSFGIQYAKAMGMRVVAVDHISKEDHCRNLGAEWFVDAFDTPDIVAHIRKLTNGGAHGVVSFAAAKKPMEYALEYVRKRGTVVFVGLPKDGTIPLDTLSLICNEITVKGSIVGSRMDVDEAIDFITRGIVHVPIELVKLEDVPSVYQRMKDGKVTSRVVVDFSMR | not soluble |
| MSSFGHRAFFSCCLLLEGETLHSIKLRKEATYQPQSGWPVRWPIRYPRALPLASHVHPYHMIVKLPHPRTQPRLFLWLSLHWTGIPFLGKPGIGRNRVKSKQFSHFQQSKIKTTMRKKTTNRKQKAERCQYRLVTA | not soluble |
| MSSGKRRNPLGLSLPPTVNEQSESGEATAEEATATVPLEEQLKKLGLTEPQTQRLSEFLQVKEGIKELSEDMLQTEGELGHGNGGVVNKCVHRKTGVIMARKLVHLEIKPSVRQQIVKELAVLHKCNSPFIVGFYGAFVDNNDISICMEYMDGLSLDIVLKKVGRLPEKFVGRISVAVVRGLTYLKDEIKILHRDVKPSNMLVNSNGEIKLCDFGVSGMLIDSMANSFVGTRSYMAPERLTGSHYTISSDIWSFGLSLVELLIGRYPVPAPSQAEYATMFNVAENEIELADSLEEPNYHPPSNPASMAIFEMLDYIVNGPPPTLPKRFFTDEVIGFVSKCLRKLPSERATLKSLTADVFFTQYADHDDQGEFAVFVKGTINLPKLNP | not soluble |
| MSSGSRPSSGGGGGGGGASGGAGGGAPGGGGGGIRGFFSKLRKPSDQPNGNQVQVGTRTFEAHELQKLIPQLEEAISRKDAQLRQQQTIVEGHIKRISELEGEVTTLQRECDKLRSVLEQKAQSAASPGGQPPSPSPRTDQLGNDLQQKAVLPADGVQRAKKIAVSAEPTNFENKPATLQHYNKTVGAKQMIRDAVQKNDFLKQLAKEQIIELVNCMYEMRARAGQWVIQEGEPGDRLFVVAEGELQVSREGALLGKMRAGTVMGELAILYNCTRTASVQALTDVQLWVLDRSVFQMITQRLGMERHSQLMNFLTKVSIFQNLSEDRISKMADVMDQDYYDGGHYIIRQGEKGDAFFVINSGQVKVTQQIEGETEPREIRVLNQGDFFGERALLGEEVRTANIIAQAPGVEVLTLDRESFGKLIGDLESLKKDYGDKERLAQVVREPPSPVKIVDDFREEFAQVTLKNVKRLATLGVGGFGRVELVCVNGDKAKTFALKALKKKHIVDTRQQEHIFAERNIMMETSTDWIVKLYKTFRDQKFVYMLLEVCLGGELWTTLRDRGHFDDYTARFYVACVLEGLEYLHRKNIVYRDLKPENCLLANTGYLKLVDFGFAKKLASGRKTWTFCGTPEYVSPEIILNKGHDQAADYWALGIYICELMLGRPPFQASDPMKTYTLILKGVDALEIPNRRIGKTATALVKKLCRDNPGERLGSGSGGVNDIRKHRWFMGFDWEGLRSRTLKPPILPKVSNPADVTNFDNYPPDNDVPPDEFSGWDEGF | not soluble |
| MSSHTATKYDVFLSFRGHDTRHNFISFLYKELVRRSIRTFKDDKELENGQRFSPELKSPIEVSRFAVVVVSENYAASSWCLDELVTIMDFEKKGSITVMPIFYGVEPNHVRWQTGVLAEQFKKHASREDPEKVLKWRQALTNFAQLSGDCSGDDDSKLVDKIANEISNKKTIYATI | soluble |
| MSSIDPATFAAQFAQIEIQPFKQRYQLQTNTYQSQLSALGKVESAMREFRTALNEMNSSTNSIIKNSTSISQEGYFTANADAKALSGSYQIFVEQVATSHQ | not soluble |
| MSSKANHAKTVICGIINVTPDSFSDGGQFFALEQALQQARKLIAEGASMLDIGGESTRPGSSYVEIEEEIQRVVPVIKAIRKESDVLISIDTWKSQVAEAALAAGADLVNDITGLMGDEKMPHVVAEARAQVVIMFNPVMARPQHPSSLIFPHFGFGQAFTEEELADFETLPIEELMEAFFERALARAAEAGIAPENILLDPGIGFGLTKKENLLLLRDLDKLHQKGYPIFLGVSRKRFVINILEENGFEVNPETELGFRNRDTASAHVTSIAARQGVEVVRVHDVASHRMAVEIASAIRLADEAENLDLKQYK | soluble |
| MSSKLVLVLNCGSSSLKFAIIDAVNGEEYLSGLAECFHLPEARIKWKMDGNKQEAALGAGAAHSEALNFIVNTILAQKPELSAQLTAIGHRIVHGGEKYTSSVVIDESVIQGIKDAASFAPLHNPAHLIGIEEALKSFPQLKDKNVAVFDTAFHQTMPEESYLYALPYNLYKEHGIRRYGAHGTSHFYVTQEAAKMLNKPVEELNIITCHLGNGGSVSAIRNGKCVDTSMGLTPLEGLVMGTRSGDIDPAIIFHLHDTLGMSVDAINKLLTKESGLLGLTEVTSDCRYVEDNYATKEDAKRAMDVYCHRLAKYIGAYTALMDGRLDAVVFTGGIGENAAMVRELSLGKLGVLGFEVDHERNLAARFGKSGFINKEGTRPAVVIPTNEELVIAQDASRLTA | soluble |
| MSSKPLLTLQELAAQNILRNEALAISALQYLPELFLPQLLKQAYDGNHLKVLRAIVSSWPFPRLPLGALKKRTPYLETQLQVVLEEVDKLLIQEVHPREYKLEVLDLRSVGQNYLNVWPGAMDDWLPKTTQTDPCCSKTVMTQPLKVLVDLQLNNRGQSRLFSYLVQWSDRRKGLLQLYCNKLQIWSPSQQNYRKLSQKVNLDYVETLGLHSSCSPSFLLNFAPYLRQMRNLRKLALSNIREEHIISPEKRRCIITRFTLQILKLESLQKLHLDAVCFLEGHLDQLLGSVKTSLDELAVTHCNLSVSEWSHFSEFPCVSQLQQLNLENVRLTGLSPEPLQVLLVKAGPTLVALDLEDCHLEDGQLYAILPALSKCFKLTKFSFYGNQISMLAMKDLLHHTASLIHLRLELYPVPQDSYDYHGTPLMQRMQQHCDELMNLLKTFRNPGRVFFGTDRCDQCCNRYIYNKTIMCNCRRSY | not soluble |
| MSSKVSPLAPTDVPAMPMIAGVRLATAAAGIRYKGRTDVLLVEMEKGTTVAGVFTTSKCASAPVEWCRDKLKGGSARALVVNSGNANAFTGKSGKQAATLTAQLAAKAIGCKPAEVFLASTGVIGEPLDATKFDGVLDALALDAGPDGWMDAAKAIMTTDTFPKVATATVKLGKAKVTINGMAKGAGMIAPDMATMLSFIFTDAPLSASCLQALLKAGVTDTFNAVTIDGDTSTSDTLLAFATGAAAENGAPKISRASDPRLKAFVKAFNAVLADLAEQVARDGEGARKLVEIIVEGAKTKVSARKIALSIANSPLVKTAIAGEDANWGRVVMAVGKAGEPADRDKLSISFNGIRVAKAGARDPSYNEKEVSAEMKKPVIQIKVALGLGKGRDRVLTCDLTKEYVAINGDYRSLEHHHHHH | not soluble |
| MSSNAQVRPPLPPFTRESAIEKIRLAEDGWNSRDPERVSLAYTLDTQWRNRAEFAHNREEAKAFLTRKWAKELDYRLIKELWAFTDNRIAVRYAYEWHDDSGNWFRSYGNENWEFDEQGLMARRFACINDMPIKAQERKFHWPLGRRPDDHPGLSELGLLEHHHHHH | soluble |
| MSSNPLRFFVLTIFPHIISCYSEYGIVKQAIKKGKVEVYPIDLREFAPKGQVDDVPYGGLPGMVLKPEPIYEAYDYVVENYGKPFVLITEPWGEKLNQKLVNELSKKERIMIICGRYEGVDERVKKIVDMEISLGDFILSGGEIVALAVIDAVSRVLPGVLSEPQSIQEDSFQNRWLGYPVYTRPREYRGMKVPEELLSGHHKLIELWKLWHRIENTVKKRPDLIPKDLTELEKDILNSILSGKSFKEWLKEHKHLL | soluble |
